Data: patent publication US8440629B2, “Cyclic receptor-associated protein (RAP) peptides” (Raptor Pharmaceuticals Inc., priority 2007, dated 2013)

Tests used:
VLDLR CR6-8 = molecular target: T1, VLDLR CR6-8 (Homo sapiens, UniProt P98155); assay: Solid phase binding assay; conditions: 80 nM ligand, FIG. 7
T1 construct: made in house; host or cells: E. coli BL21(DE3) CodonPlus-RIPL, pET30(+)a
Protocol: (§1) All expression constructs were sequenced to verify insert sequences and the junctions with the expression vector. Each plasmid was then used to transform BL21(DE3) CodonPlus-RIPL™ cells (Stratagene). Expression of the CR proteins was induced in logarithmic growth-phase cells grown in LB supplemented with 34 μg/mL chloramphenicol, 12.5 μg/mL tetracycline and 15 μg/mL kanamycin by addition of 2 mM IPTG, followed by reduction in incubator temperature to 32° C. and incubation for 4 hours with agitation at […]. Cells were pelleted and resuspended, at 3.5% of the initial culture volume in 10 mM Tris-HCl pH 8, 100 mM NaH2PO4, 8M Urea. Resuspended cells were then frozen in liquid nitrogen, rapidly thawed to 37° C. and sonicated for 10 seconds at an amplitude setting of 60 using a Cole-Parmer CP-130 ultrasonic processor connected to a 3 mm probe. This procedure was repeated three times to effect complete lysis of the cells. Lysates were clarified by spinning twice at 10,000×g in a Sorvall RC-5 centrifuge for 20 minutes at 15° C. Ni-NTA columns (Qiagen Superflow™, 1.5 mL packed bed) were used to purify the CR proteins. Briefly, the resin was equilibrated with two column volumes of lysis buffer. The clarified lysate was then supplemented to 20 mM with imidazole and incubated with the equilibrated Ni-NTA resin overnight at 4° C. The flow-through was discarded. Columns were washed once with one column volume of lysis buffer and then three times with one column volume of TBS pH 8 supplemented with 20 mM imidazole. CR-loaded beads were then removed from the column and CR proteins eluted by incubating at room temperature for 30 minutes with one column volume of the same buffer containing 200 mM imidazole. This step was repeated once and the eluates pooled. Eluted CR protein solutions were then supplemented to 2 M urea, 10 mM CaCl2 and 5 mM DTT. Purified, denatured CR protein solutions were transferred to 3,500 MWCO Slide-A-Lyzer™ (Pierce) cassettes and sequentially dialyzed against a 200-fold excess of 50 mM Tris-HCl pH 8.5, 10 mM CaCl2, 1 mM reduced glutathione, 0.5 mM oxidized glutathione at room temperature overnight and then against TBS supplemented with 5 mM CaCl2 at 4° C. overnight. Protein concentrations were determined by Bradford assay and purity confirmed by SDS-PAGE with Coomassie Brilliant Blue staining.
(§2) Purified, refolded CR protein (1 μg) was bound to Nunc Maxisorp™ 96-well plates in TBS pH 8 supplemented with 5 mM CaCl2 (TBSC) overnight at 4° C. Wells were washed with TBSC and then blocked with TBSC containing 2% bovine serum albumin (BSA). RAP ligands were then incubated with the immobilized receptor at a range of concentrations for 2 hours in the above blocking buffer supplemented with 0.05% Tween-20 at room temperature. Control wells contained no added ligand. As an additional control, to determine whether the absence of calcium affected binding, 10 mM EGTA was included in the incubation medium for some samples. Wells were washed with TBSTC and bound ligands detected with polyclonal anti-RAP (BP41/42, 1:1,000, BioMarin). Excess primary antibody was removed and wells washed before incubation with the secondary antibody, HRP-conjugated goat anti rabbit IgG (Bio-Rad). After washing, TMB substrate solutions (Bio-Rad) were added to detect HRP. Color development was stopped with 1N HCl. Absorption at 450 nm was measured with a microplate spectrophotometer (Molecular Devices). Data were plotted and Kd values derived by non-linear regression with the assumption of single-site binding (GraphPad Prism).
(§3) From the large number of CR pairs with unique combinations of amino acids at A, C, A′ and C′ within the calcium-binding loop of each CR, CR pairs or triplets were selected to test their binding to RAP d3 (FIG. 2). An additional pair derived from the FDC-8D6 protein was tested, designated 8D6 CR12, having the sequence ([…]) (SEQ ID NO: 91). […]

VLDLR CR78 = molecular target: T2, VLDLR CR78 (Homo sapiens, UniProt P98155); assay: Solid phase binding assay
T2 construct: a CR pair from VLDLR (CR78); made in house; host or cells: E. coli BL21(DE3) CodonPlus-RIPL, pET30(+)a
Protocol: as §1, §2, §3

[1] = tested on: LRP-deficient CHO-K1 cells; assay: Endocytosis-dependent toxicity assay (MTT); type: cell-based, Chinese hamster; conditions: 100 nM, 48 hours
Protocol: (§4) In order to determine the ability of the cyclic RAP peptides to bind receptor on the surface of a cell, binding was assessed in the presence of cultured cell lines. To determine whether cyclic RAP peptides could be bound and endocytosed by full-length LRP1 expressed on cells in culture, an endocytosis-dependent toxicity assay was used. Two cell-lines were used, Chinese hamster ovary CHO-K1 cells expressing only one high-affinity RAP-receptor, LRP1, and a mutant CHO-K1 lacking LRP1 expression was used as control. Cells were cultured in BioWhittaker UltraCHO medium (Lonza, Basel, Switzerland) supplemented with 2.5% fetal bovine serum. Cells were seeded in 12-well tissue culture plates. The biotinylated mRAPc was combined with equimolar amounts of a conjugate between streptavidin and the bacterial toxin saporin (ZAP, Advanced Targeting Systems, San Diego, Calif.). The mixture was diluted in MEM without phenol red (Mediatech, Manassas, Va.) supplemented with 10% FBS to 100 nM. Conjugated mRAPc (100 nM) and control agents (mRAPc alone, 100 nM, streptavidin-saporin alone, 100 nM, saporin alone, 1 mM) were cultured with confluent cells and cell death was assayed 48 hours later via MTT assay (Invitrogen, San Diego, Calif.).

[2] = tested on: wild-type CHO-K1 cells expressing LRP1; assay: Endocytosis-dependent toxicity assay (MTT); type: cell-based, Chinese hamster; conditions: 100 nM, 48 hours
Protocol: as §4

| binding at 80 nM (in words) (VLDLR CR6-8) | binding at 80 nM (in words) (VLDLR CR78; 80 nM ligand, FIG. 7) | Kd (VLDLR CR78; solid-phase assay, VLDLR CR78, read-out: apparent dissociation constant (Kd)) | Molecule | effect on cell survival (in words) [1] | effect on cell survival (in words) [2] |
| --- | --- | --- | --- | --- | --- |
| bound | bound | 44 ± 9 nM | VRAP1 d3: RAP d3 variant selected on VLDLR CR6-8: R205S, E251R, K256L, K270E, R296L, G313D (protein) LDRLSRVSHQGYSTEAEFEEPRVIDLWDLAQSANLTDKELEAFREELKHFRAKIELHNHYQKQLEIAHEELRHAESVGDGERVSRSREKHALLEGLTKELGYTVKKHLQDLSDRISRAR |  |  |
|  |  |  | mRAPc: minimized RAP d3, E241C, A242G, R314G, I315C, disulfide-cyclized, N-terminal biotin-GGSGG (SEQ ID NO: 99) (disulfide cyclization; N-terminal biotin-GGSGG) CGFREELKHFEAKIEKHNHYQKQLEIAHEKLRHAESVGDGERVSRSREKHALLEGRTKELGYTVKKHLQDLSGGC | no effect | no effect |
